# Test results taken from IntAct's records for PubMed 16905657.
# B1: Clathrin heavy chain 1 (Arabidopsis thaliana (Mouse-ear cress)), Q0WNJ6 (parent)
# chain: MAAANAPIIMKEVLTLPSVGIGQQFITFTNVTMESDKYICVRETAPQNSVVIIDMNMPMQPLRRPITADSALMNPNSRILALKAQVPGTTQDHLQIFNIEAKAKLKSHQMPEQVAFWKWITPKMLGLVTQTSVYHWSIEGDSEPVKMFDRTANLANNQIINYKCSPNEKWLVLIGIAPGSPERPQLVKGNMQLFSVDQQRSQALEAHAASFAQFKVPGNENPSILISFASKSFNAGQITSKLHVIELGAQPGKPSFTKKQADLFFPPDFADDFPVAMQVSHKFNLIYVITKLGLLFVYDLETASAIYRNRISPDPIFLTSEASSVGGFYAINRRGQVLLATVNEATIIPFISGQLNNLELAVNLAKRGNLPGAENLVVQRFQELFAQTKYKEAAELAAESPQGILRTPDTVAKFQSVPVQAGQTPPLLQYFGTLLTRGKLNSYESLELSRLVVNQNKKNLLENWLAEDKLECSEELGDLVKTVDNDLALKIYIKARATPKVVAAFAERREFDKILIYSKQVGYTPDYMFLLQTILRTDPQGAVNFALMMSQMEGGCPVDYNTITDLFLQRNLIREATAFLLDVLKPNLPEHAFLQTKVLEINLVTFPNVADAILANGMFSHYDRPRVAQLCEKAGLYIQSLKHYSELPDIKRVIVNTHAIEPQALVEFFGTLSSEWAMECMKDLLLVNLRGNLQIIVQACKEYCEQLGVDACIKLFEQFKSYEGLYFFLGSYLSMSEDPEIHFKYIEAAAKTGQIKEVERVTRESNFYDAEKTKNFLMEAKLPDARPLINVCDRFGFVPDLTHYLYTNNMLRYIEGYVQKVNPGNAPLVVGQLLDDECPEDFIKGLILSVRSLLPVEPLVAECEKRNRLRLLTQFLEHLVSEGSQDVHVHNALGKIIIDSNNNPEHFLTTNPYYDSKVVGKYCEKRDPTLAVVAYRRGQCDEELINVTNKNSLFKLQARYVVERMDGDLWEKVLTEENEYRRQLIDQVVSTALPESKSPEQVSAAVKAFMTADLPHELIELLEKIVLQNSAFSGNFNLQNLLILTAIKADPSRVMDYINRLDNFDGPAVGEVAVDAQLYEEAFAIFKKFNLNVQAVNVLLDNVRSIERAVEFAFRVEEDAVWSQVAKAQLREGLVSDAIESFIRADDTTQFLEVIRASEDTNVYDDLVRYLLMVRQKVKEPKVDSELIYAYAKIERLGEIEEFILMPNVANLQHVGDRLYDEALYEAAKIIYAFISNWAKLAVTLVKLQQFQGAVDAARKANSAKTWKEVCFACVDAEEFRLAQICGLNIIIQVDDLEEVSEYYQNRGCFNELISLMESGLGLERAHMGIFTELGVLYARYRYEKLMEHIKLFSTRLNIPKLIRACDEQQHWQELTYLYIQYDEFDNAATTVMNHSPEAWEHMQFKDIVAKVANVELYYKAVHFYLQEHPDIINDLLNVLALRLDHTRVVDIMRKAGHLRLIKPYMVAVQSNNVSAVNEALNEIYAEEEDYDRLRESIDLHDSFDQIGLAQKIEKHELVEMRRVAAYIYKKAGRWKQSIALSKKDNMYKDCMETASQSGDHDLAEQLLVYFIEQGKKECFATCLFVCYDLIRPDVALELAWINNMIDFAFPYLLQFIREYSGKVDELIKDKLEAQKEVKAKEQEEKDVMSQQNMYAQLLPLALPAPPMPGMGGGGYGPPPQMGGMPGMSGMPPMPPYGMPPMGGY
# partner: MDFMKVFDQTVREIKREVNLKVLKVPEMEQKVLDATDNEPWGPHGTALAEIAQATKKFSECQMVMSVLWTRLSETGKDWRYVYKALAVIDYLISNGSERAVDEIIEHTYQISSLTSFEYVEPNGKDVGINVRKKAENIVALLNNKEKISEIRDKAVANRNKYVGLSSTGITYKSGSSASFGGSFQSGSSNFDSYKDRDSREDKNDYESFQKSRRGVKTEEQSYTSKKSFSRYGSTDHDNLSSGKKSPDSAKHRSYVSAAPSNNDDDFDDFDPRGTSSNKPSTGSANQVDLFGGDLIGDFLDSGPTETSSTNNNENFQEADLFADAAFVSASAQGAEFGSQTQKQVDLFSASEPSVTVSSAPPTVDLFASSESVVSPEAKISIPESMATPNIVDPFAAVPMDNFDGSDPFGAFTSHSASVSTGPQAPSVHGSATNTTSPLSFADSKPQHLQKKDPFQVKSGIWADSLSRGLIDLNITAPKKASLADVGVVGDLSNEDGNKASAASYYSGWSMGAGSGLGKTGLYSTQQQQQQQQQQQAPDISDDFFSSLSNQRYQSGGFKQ
# Variants of: B1
# Conditions: with epn1_arath EPSIN1, Q8VY07
row,effect of a mutation on the interaction,Variant
1,disrupting interaction,L470R
